B1: TPR t1 (parent)
chain: GACCAAUCUGCCCUCAGAGCUCGAGAACAUCUUCGGAUGCAGAGGAGGCAGGCUUCGGUGGCGCGAUAGCGCCAACGUCCUCAACCUCCAAUGCAUCCCACCACAUGAUGAUGCCUGAAGAGCCUUGGUUUUUUG

Variants of: B1
Experiment: polymerase ribozyme fitness, log enrichment relative to wild type (log ratio); higher = more active; in vitro selection for triplet polymerase activity
Outline: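 Both subunits of a heterodimeric triplet polymerase ribozyme were given their own mutant library, built by PCR and transcribed. Each library was annealed with a biotinylated primer, the partner subunit and triplets, incubated frozen at −7 °C, and its extended constructs gel-excised, captured on streptavidin beads and amplified by RT-PCR, all in one round done in triplicate. Fitness is the logarithm of genotype enrichment relative to wild-type enrichment, with replicates averaged by inverse-variance weighting. That logarithm is base 2, and Illumina-sequenced genotypes needed ≥10 input reads and ≥1 read per output.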
For C11U G45A C89G A121G, the “polymerase ribozyme fitness (log ratio)” value was 0.687.
With C12A A27G G93A the “polymerase ribozyme fitness (log ratio)” value was -5.16.
With C11U A16U U112A the “polymerase ribozyme fitness (log ratio)” value was -0.434.
With C11G U134A the “polymerase ribozyme fitness (log ratio)” value was 0.54.
For C11G U59A A68U, the “polymerase ribozyme fitness (log ratio)” value was -7.59.
With C11U C49A U55C G60A U87A C88G A95C A121U the “polymerase ribozyme fitness (log ratio)” value was -2.74.
With C11U A16C G63A the “polymerase ribozyme fitness (log ratio)” value was -3.2.
In the case of C11U C85G, the “polymerase ribozyme fitness (log ratio)” value is reported as -2.37.
For C11G G117U G127U, the “polymerase ribozyme fitness (log ratio)” value was -3.47.
With C11G U55C C62G A83U A95U the “polymerase ribozyme fitness (log ratio)” value was -1.47.
For C11U G52A G57U A95U, the “polymerase ribozyme fitness (log ratio)” value was -1.32.
With C11U U38A G120C the “polymerase ribozyme fitness (log ratio)” value was 0.779.
In the case of C11U A84G C89A, the “polymerase ribozyme fitness (log ratio)” value is reported as -4.
In the case of C11U U131G, the “polymerase ribozyme fitness (log ratio)” value is reported as -1.44.
With C11G G122A the “polymerase ribozyme fitness (log ratio)” value was 0.352.
For C11U A83C, the “polymerase ribozyme fitness (log ratio)” value was -0.558.
With C11U A74C A111U the “polymerase ribozyme fitness (log ratio)” value was -3.83.
In the case of C11U C40G C49A U55G G61A, the “polymerase ribozyme fitness (log ratio)” value is reported as -1.51.
In the case of C11U C56A C104A C115G, the “polymerase ribozyme fitness (log ratio)” value is reported as -6.27.
For C11U C70A U129A, the “polymerase ribozyme fitness (log ratio)” value was -3.59.
With C11U G57U the “polymerase ribozyme fitness (log ratio)” value was -0.202.
In the case of C12A A29U G93U, the “polymerase ribozyme fitness (log ratio)” value is reported as -2.79.
With C11U G36U G117A C124U the “polymerase ribozyme fitness (log ratio)” value was -5.7.
With C11G G113A the “polymerase ribozyme fitness (log ratio)” value was -0.119.
With C11U A74U U109G U116A the “polymerase ribozyme fitness (log ratio)” value was -6.7.
In the case of C11U C124A, the “polymerase ribozyme fitness (log ratio)” value is reported as 1.7.
With C12A A37U C114G the “polymerase ribozyme fitness (log ratio)” value was -3.99.
In the case of C11G U129G, the “polymerase ribozyme fitness (log ratio)” value is reported as -1.77.
With C11U G52A U92G C102A G122U the “polymerase ribozyme fitness (log ratio)” value was -6.57.
For C11U A29U, the “polymerase ribozyme fitness (log ratio)” value was -2.46.
For C11U A29C, the “polymerase ribozyme fitness (log ratio)” value was -3.12.
With C11U A37U U55C the “polymerase ribozyme fitness (log ratio)” value was -1.28.
In the case of C11U C97U, the “polymerase ribozyme fitness (log ratio)” value is reported as -1.74.
In the case of C11U A50U C88U, the “polymerase ribozyme fitness (log ratio)” value is reported as -1.26.
For C11U G19A C49U C56U U59C C114U, the “polymerase ribozyme fitness (log ratio)” value was -2.93.
For C11U G60A G61U U78C C86G, the “polymerase ribozyme fitness (log ratio)” value was -4.45.
With C11U C13A C88U the “polymerase ribozyme fitness (log ratio)” value was -2.38.
In the case of C11G U21A G77A, the “polymerase ribozyme fitness (log ratio)” value is reported as -0.311.
In the case of C11U C40G G61C A119U, the “polymerase ribozyme fitness (log ratio)” value is reported as -2.64.
With C11U C13U C53U G63U U92G C104U U112A the “polymerase ribozyme fitness (log ratio)” value was -4.22.
For C11U G42C A75G U112C A121U G127A, the “polymerase ribozyme fitness (log ratio)” value was -0.694.
For C11U C62G U112A C123A G127U, the “polymerase ribozyme fitness (log ratio)” value was -0.368.
With C12A A26G the “polymerase ribozyme fitness (log ratio)” value was -1.73.
In the case of C11G U14A A26C C80A C89U C124U, the “polymerase ribozyme fitness (log ratio)” value is reported as -6.54.
In the case of C11U C15G A27G C94G U109C G110A A119U G120A, the “polymerase ribozyme fitness (log ratio)” value is reported as -7.62.
For C11U C15A G39C G61C C114A, the “polymerase ribozyme fitness (log ratio)” value was -5.39.
In the case of C11U G19C G71A U116C A119U G122A, the “polymerase ribozyme fitness (log ratio)” value is reported as -6.27.
For C11G G117A, the “polymerase ribozyme fitness (log ratio)” value was -0.219.
For C11U A43G C72G, the “polymerase ribozyme fitness (log ratio)” value was -2.54.
For C12A A41U G45A C64A U87C A100C U116C, the “polymerase ribozyme fitness (log ratio)” value was -6.47.
With C11U C20G G117U the “polymerase ribozyme fitness (log ratio)” value was -4.42.
With C11U U54C G63U C85A the “polymerase ribozyme fitness (log ratio)” value was -2.46.
In the case of C11U U78G A95C G113U C114G, the “polymerase ribozyme fitness (log ratio)” value is reported as -4.56.
For C11U A43U C56U C114G G128C, the “polymerase ribozyme fitness (log ratio)” value was -5.28.
For C11U C114U, the “polymerase ribozyme fitness (log ratio)” value was -1.57.
In the case of C11U C114G, the “polymerase ribozyme fitness (log ratio)” value is reported as -3.54.
With C11U G51U A119U the “polymerase ribozyme fitness (log ratio)” value was -3.53.
For C11U C53U C72U C82G C123G, the “polymerase ribozyme fitness (log ratio)” value was -0.853.
With C11U C53U C72U C82G the “polymerase ribozyme fitness (log ratio)” value was -1.43.
In the case of C11U G71C, the “polymerase ribozyme fitness (log ratio)” value is reported as -0.699.
For C11U C34U G71A A121C U129C, the “polymerase ribozyme fitness (log ratio)” value was -6.13.
In the case of C11U U32G U38G U54C C99G G120C, the “polymerase ribozyme fitness (log ratio)” value is reported as -6.93.
For C11U G71A C98U A105U G110U G122U C124A, the “polymerase ribozyme fitness (log ratio)” value was -7.92.
With C11U G17U G48A C114G the “polymerase ribozyme fitness (log ratio)” value was -6.05.
In the case of C11U C62G C89U A121C C124G U125A, the “polymerase ribozyme fitness (log ratio)” value is reported as -0.483.
For C11U U54A G60A G110C A121U, the “polymerase ribozyme fitness (log ratio)” value was -4.92.
For C11U A37U G45A, the “polymerase ribozyme fitness (log ratio)” value was -1.81.
For C11U G113C, the “polymerase ribozyme fitness (log ratio)” value was -2.55.
In the case of C12A A26C C56G G63U C89G G107A U116C, the “polymerase ribozyme fitness (log ratio)” value is reported as -7.06.
With C11U C22U the “polymerase ribozyme fitness (log ratio)” value was -4.2.
In the case of C11U C22A, the “polymerase ribozyme fitness (log ratio)” value is reported as -4.84.
For C11U C115U, the “polymerase ribozyme fitness (log ratio)” value was -1.61.
With C12A A46U the “polymerase ribozyme fitness (log ratio)” value was -1.75.
For C11U C34U, the “polymerase ribozyme fitness (log ratio)” value was -3.97.
In the case of C11U G47A G71C C86U, the “polymerase ribozyme fitness (log ratio)” value is reported as -0.929.
In the case of C12A A29U C56U, the “polymerase ribozyme fitness (log ratio)” value is reported as -3.33.
For C11U C13U C22G C82A, the “polymerase ribozyme fitness (log ratio)” value was -4.12.
In the case of C11U A18U C20U C56U C101A, the “polymerase ribozyme fitness (log ratio)” value is reported as -3.06.
In the case of C11U C15A C56U, the “polymerase ribozyme fitness (log ratio)” value is reported as -1.47.
For C11U G60C A84U, the “polymerase ribozyme fitness (log ratio)” value was -0.912.
In the case of C11U U30A G61U, the “polymerase ribozyme fitness (log ratio)” value is reported as -4.45.
For C11U G42C G63C U130G, the “polymerase ribozyme fitness (log ratio)” value was -3.61.
For C11U C85G U109G C123A, the “polymerase ribozyme fitness (log ratio)” value was -5.74.
For C11U U116G G122A C124U, the “polymerase ribozyme fitness (log ratio)” value was 0.369.

Source: the RNAGym collection of RNA variant scans (doi:10.1073/pnas.2313332121)
